Residue numbers refer to the chain shown, from its start. Names may count otherwise.
B1: C35S-hTRX (enzyme)
chain: MVKQIESKTAFQEALDAAGDKLVVVDFSATWCGPSKMIKPFFHSLSEKYSNVIFLEVDVDDCQDVASECEVKCMPTFQFFKKGQKVGEFSGANKEKLEATINELV
B2: C69S-hTRX (enzyme)
chain: B1 chain with S35C, C69S
B3: C73S-hTRX (enzyme)
chain: B1 chain with S35C, C73S
B4: IAA-treated hTRX (thiol-free variant) (enzyme)
chain: B1 chain with S35C
modifications: all cysteine residues chemically modified with iodoacetamide
B5: C62S-hTRX (enzyme)
chain: B1 chain with S35C, C62S
B6: C62/69S-hTRX (enzyme)
chain: B1 chain with S35C, C62S, C69S
B7: C32/35S-hTRX (enzyme)
chain: B1 chain with C32S

These binders were tested against human protein arginine deiminase 4 (PAD4) (human) (UniProt Q9UM07).
UniProt Q9UM07, sequence (Q9UM07 whole entry): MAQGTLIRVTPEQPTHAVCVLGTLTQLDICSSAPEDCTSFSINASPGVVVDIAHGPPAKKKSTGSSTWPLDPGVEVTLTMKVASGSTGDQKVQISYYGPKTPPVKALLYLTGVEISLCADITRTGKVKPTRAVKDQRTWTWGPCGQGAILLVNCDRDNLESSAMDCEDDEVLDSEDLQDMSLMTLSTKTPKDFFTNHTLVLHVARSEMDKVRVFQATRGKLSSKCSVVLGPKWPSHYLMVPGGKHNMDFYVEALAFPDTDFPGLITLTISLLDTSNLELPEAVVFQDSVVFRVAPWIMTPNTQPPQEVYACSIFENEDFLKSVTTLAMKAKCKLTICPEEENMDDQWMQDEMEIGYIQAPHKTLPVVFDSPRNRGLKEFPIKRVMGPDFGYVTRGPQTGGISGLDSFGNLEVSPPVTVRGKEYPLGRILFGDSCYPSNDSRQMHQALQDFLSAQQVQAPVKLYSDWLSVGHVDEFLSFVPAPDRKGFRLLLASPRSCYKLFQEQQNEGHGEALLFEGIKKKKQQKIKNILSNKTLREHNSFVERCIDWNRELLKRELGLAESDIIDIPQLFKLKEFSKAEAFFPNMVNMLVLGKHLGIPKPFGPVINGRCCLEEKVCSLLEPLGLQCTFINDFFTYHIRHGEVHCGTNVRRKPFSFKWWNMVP

Row | K d(app): hTRX concentration (0-10 uM) giving half-maximal activation of PAD4 (citrullination of BAEE) [nM] | Binder
1 | 1170 | B1
2 | 1380 | B2
3 | 780 | B3
4 | 620 | B4
5 | 1140 | B5
6 | 610 | B6
7 | 440 | B7

Reference: paper PMC6396667
